In paper PMC6938348 (PLoS ONE, 2019):

Assays:
[1] = biological target: T1, Her2 on cells (SKOV3, JIMT-1, MCF7) (Homo sapiens (endogenous in SKOV3, …, UniProt P04626)); experiment: cell-based or functional assay
soluble Her2 ectodomain [2] = biological target: T2, soluble Her2 ectodomain (Homo sapiens (assumed; species and …, UniProt P04626); experiment: SPR; antibody captured on an anti-hFc CM-5 surface, soluble Her2 ectodomain flowed (monovalent binding); single cycle kinetics in duplicate, 25°C, PBS with 3.4 mM EDTA and 0.05% Tween 20; 1:1 binding model; Biacore T200; conditions: both partners purified
T2 construct: Her2 ectodomain, soluble

[3] = biological target: T1, Her2 on cells (SKOV3, JIMT-1, MCF7); experiment: flow cytometry on cells; saturation binding of full-size antibodies on live low-Her2 MCF7 cells, 4°C 2 h, 0 to 200 nM or 1 μM, washed, anti-human Fc AlexaFluor488-(Fab')2 detection; apparent KD; conditions: one partner purified
[4] = biological target: T1, Her2 on cells (SKOV3, JIMT-1, MCF7); experiment: flow cytometry on cells; saturation binding of full-size antibodies on live high-Her2 SKOV3 cells, 4°C 2 h, 0 to 200 nM or 1 μM, washed, anti-human Fc AlexaFluor488-(Fab')2 detection; apparent KD; conditions: one partner purified
soluble Her2 ectodomain [5] = biological target: T2, soluble Her2 ectodomain; experiment: SPR; antibody captured on an anti-hFc CM-5 surface, soluble Her2 ectodomain flowed (monovalent binding); single cycle kinetics in duplicate, 25°C, PBS with 3.4 mM EDTA and 0.05% Tween 20; 1:1 binding model; Biacore T200; conditions: both partners purified; remark: listed apart in the source
[6] = biological target: T1, Her2 on cells (SKOV3, JIMT-1, MCF7); experiment: cell-based or functional assay; remark: listed apart in the source

B1: bH1 full-size antibody (Parent 2) (antibody, V domains shown)
VH: not shown
VL: DIQMTQSPSSLSASVGDRVTITCRASQDIPRSISGYVAWYQQKPGKAPKLLIYWGSYLYSGVPSRFSGSGSGTDFTLTISSLQPEDFATYYCQQHYTTPPTFGQGTKVEIK
notes: heavy chain of bH1 (Parent 2) as full-size human IgG; light chain of bH1 (Parent 2), a Herceptin variant with a 4-residue insertion in CDR-L1 and a few point mutations; FSA; IgG1 is surmised (Synagis is called the IgG1 isotype control); also called 2–13; source: CHO-3E7, co-transfected, purified (MabSelect Sure); copies: 2 + 2
- IC50 of cytotoxicity, antibody directly conjugated to DM1, SKOV3 cells [1]: 0.075 nM
- IC50 of cytotoxicity, antibody directly conjugated to PNU, JIMT1 cells [1]: 0.5 nM
- IC50 of cytotoxicity, antibody directly conjugated to PNU, MCF7 cells [1]: 2.02 nM
- IC50 of cytotoxicity, antibody directly conjugated to PNU, SKOV3 cells [1]: 0.077 nM
- koff (soluble Her2 ectodomain [2]): 0.000741 s⁻¹
- kon (soluble Her2 ectodomain [2]): 100000 M⁻¹ s⁻¹
- Kd [3]: 0.87 nM
- Kd [4]: 2.41 nM
- Kd (soluble Her2 ectodomain [5]): 14.7 nM
- IC50 of cytotoxicity, indirect ADC screen (DM1-conjugated secondary antibody), JIMT1 cells [6]: 7.4 nM
- IC50 of cytotoxicity, indirect ADC screen (DM1-conjugated secondary antibody), MCF7 cells [6]: 8.2 nM
- IC50 of cytotoxicity, indirect ADC screen (DM1-conjugated secondary antibody), SKOV3 cells [6]: 0.021 nM
- IC50 of cytotoxicity, indirect ADC screen (MMAE-conjugated secondary antibody), JIMT1 cells [6]: 10.3 nM
- IC50 of cytotoxicity, indirect ADC screen (MMAE-conjugated secondary antibody), MCF7 cells [6]: 35.6 nM
- IC50 of cytotoxicity, indirect ADC screen (MMAE-conjugated secondary antibody), SKOV3 cells [6]: 0.078 nM
